Data reported in PMC9616921.

Key:
[1] = molecular target: minimal mature VEGF-C refolded from E. coli inclusion bodies (human); assay: SEC; refolded, dialysed and concentrated material on Superdex 75 10/300 GL in PBS, 0.5-0.6 mL/min; calibrated with BSA, carbonic anhydrase and RNaseA; dimeric fractions 11.5-13.5 mL, monomeric fractions 13.5-15.5 mL
[2] = IP of 35S-labelled 293T supernatants and lysates, SDS-PAGE; conditions: glycan lost; control: wild type

stoichiometry N [1]	Molecule	expression_or_secretion [2]
2	minimal mature VEGF-C refolded from E. coli inclusion bodies (domain or fragment)	–
–	VEGF-C: N175,205W (protein) parent chain: MHLLGFFSVACSLLAAALLPGPREAPAAAAAFESGLDLSDAEPDAGEATAYASKDLEEQLRSVSSVDELMTVLYPEYWKMYKCQLRKGGWQHNREQANLNSRTEETIKFAAAHYNTEILKSIDNEWRKTQCMPREVCIDVGKEFGVATNTFFKPPCVSVYRCGGCCNSEGLQCMNTSTSYLSKTLFEITVPLSQGPKPVTISFANHTSCRCMSKLDVYRQVHSIIRRSLPATLPQCQAANKTCPTNYMWNNHICRCLAQEDFMFSSDAGDDSTDGFHDICGPNKELDEETCQCVCRAGLRPASCGPHKELDRNSCQCVCKNKLFPSQCGANREFDENTCQCVCKRTCPRNQPLNPGKCACECTESPQKCLLKGKKFHHQTCSCYRRPCTNRQKACEPGFSYSEEVCRCVPSYWKRPQMS	abolishes
–	VEGF-C: N175,205Q (protein) parent chain: MHLLGFFSVACSLLAAALLPGPREAPAAAAAFESGLDLSDAEPDAGEATAYASKDLEEQLRSVSSVDELMTVLYPEYWKMYKCQLRKGGWQHNREQANLNSRTEETIKFAAAHYNTEILKSIDNEWRKTQCMPREVCIDVGKEFGVATNTFFKPPCVSVYRCGGCCNSEGLQCMNTSTSYLSKTLFEITVPLSQGPKPVTISFANHTSCRCMSKLDVYRQVHSIIRRSLPATLPQCQAANKTCPTNYMWNNHICRCLAQEDFMFSSDAGDDSTDGFHDICGPNKELDEETCQCVCRAGLRPASCGPHKELDRNSCQCVCKNKLFPSQCGANREFDENTCQCVCKRTCPRNQPLNPGKCACECTESPQKCLLKGKKFHHQTCSCYRRPCTNRQKACEPGFSYSEEVCRCVPSYWKRPQMS	abolishes
